Measured values reported in patent WO2010064089A1.

Assays:
[1] = biological target: C-Met-Rluc and C-Met-K1100A-YFP co-expressed in a CHO stable cell line (c-Met dimerization BRET model) (R. reniformis), P08581; experiment: cell-based or functional assay
[2] = biological target: C-Met-Rluc expressed with a mutated form of Gab1 fused to YFP in a CHO stable cell line (c-Met activation BRET model) (R. reniformis), P08581; experiment: cell-based or functional assay

B1: murine 224G11 Mab (antibody, mouse IgG1, V domains shown)
VH: EVQLQQSGPELVKPGASVKISCKTSGYIFTAYTMHWVRQSLGESLDWIGGIKPNNGLANYNQKFKGKATLTVDKSSSTAYMDLRSLTSEDSAVYYCARSEITTEFDYWGQGTALTVSS
VL: DIVLTQSPASLAVSLGQRATISCRASESVDSYANSFMHWYQQKPGQPPKLLIYRASNLESGIPARFSGSGSRTDFTLTINPVEADDVATYYCQQSKEDPLTFGSGTKLEMKR
[1]
  BRET signal with Mab alone, c-Met dimerization model (% of HGF-induced signal): 21.3
  inhibition of the HGF induced BRET signal, c-Met dimerization model: 59.4%
[2]
  inhibition of the HGF induced BRET signal, c-Met activation model: 56.4%

B2: [224G11]chim (antibody, human IgG1, V domains shown)
VH: B1 VH
VL: B1 VL
[1]
  BRET signal with Mab alone, c-Met dimerization model (% of HGF-induced signal): 46.6
  inhibition of the HGF induced BRET signal, c-Met dimerization model: 28.9%
[2]
  BRET signal with Mab alone, c-Met activation model (% of the HGF induced signal): 32.9
  inhibition of the HGF induced BRET signal, c-Met activation model: 34.5%

B3: [224G11][MH chim] (antibody, human IgG1, V domains shown)
VH: B1 VH
VL: B1 VL
[1]
  inhibition of the HGF induced c-Met dimerization BRET signal: 61.8%
[2]
  BRET signal with Mab alone, c-Met activation model: 5.1%
  inhibition of the HGF induced activation BRET signal: 59.7%

B4: [224G11][MUP9H chim] (antibody, human IgG1, V domains shown)
VH: B1 VH
VL: B1 VL
[1]
  inhibition of the HGF induced c-Met dimerization BRET signal: 64.4%
[2]
  BRET signal with Mab alone, c-Met activation model: 7.6%
  inhibition of the HGF induced activation BRET signal: 64.4%

B5: [224G11][MMCH chim] (antibody, human IgG1, V domains shown)
VH: B1 VH
VL: B1 VL
[1]
  inhibition of the HGF induced c-Met dimerization BRET signal: 52.5%
[2]
  BRET signal with Mab alone, c-Met activation model: -2%
  inhibition of the HGF induced activation BRET signal: 53.2%

B6: [224G11][IgG2 chim] (antibody)
heavy: EVQLQQSGPELVKPGASVKISCKTSGYIFTAYTMHWVRQSLGESLDWIGGIKPNNGLANYNQKFKGKATLTVDKSSSTAYMDLRSLTSEDSAVYYCARSEITTEFDYWGQGTALTVSSASTKGPSVFPLAPCSRSTSESTAALGCLVKDYFPEPVTVSWNSGALTSGVHTFPAVLQSSGLYSLSSVVTVPSSNFGTQTYTCNVDHKPSNTKVDKTVERKCCVECPPCPAPPVAGPSVFLFPPKPKDTLMISRTPEVTCVVVDVSHEDPEVQFNWYVDGVEVHNAKTKPREEQFNSTFRVVSVLTVVHQDWLNGKEYKCKVSNKGLPAPIEKTISKTKGQPREPQVYTLPPSREEMTKNQVSLTCLVKGFYPSDIAVEWESNGQPENNYKTTPPMLDSDGSFFLYSKLTVDKSRWQQGNVFSCSVMHEALHNHYTQKSLSLSPG
light: DIVLTQSPASLAVSLGQRATISCRASESVDSYANSFMHWYQQKPGQPPKLLIYRASNLESGIPARFSGSGSRTDFTLTINPVEADDVATYYCQQSKEDPLTFGSGTKLEMKRTVAAPSVFIFPPSDEQLKSGTASVVCLLNNFYPREAKVQWKVDNALQSGNSQESVTEQDSKDSTYSLSSTLTLSKADYEKHKVYACEVTHQGLSSPVTKSFNRGEC
[1]
  inhibition of the HGF induced BRET signal, c-Met dimerization model: 62.4%
[2]
  inhibition of the HGF effect, c-Met activation BRET model: 66.3%
